{"source": "paper PMC7311640", "about": "“The Beta Subunit of Non-bifurcating NADH-Dependent [FeFe]-Hydrogenases Differs From Those of Multimeric Electron-Bifurcating [FeFe]-Hydrogenases” (Frontiers in Microbiology, 2020)", "target": "the molecule itself", "experiment": "SEC; purified HydAB fraction on Superdex 200 10/300 GL calibrated with gel filtration standards"}
{"protein": "αβ heterodimer of Syntrophus aciditrophicus HydAB (His-HydA with HydB) (complex, HydA, [FeFe]-hydrogenase alpha subunit, Syntrophus aciditrophicus, locus tag SYN_01370; as the chain of m1; HydB, [FeFe]-hydrogenase beta subunit, Syntrophus aciditrophicus, locus tag SYN_01369; as the chain of m2; Unit of the α2β2 heterotetramer found by size exclusion chromatography; also called HydAB fraction; 144 kDa αβ heterodimer; source: E. coli BL21(DE3), co-expressed with maturation genes) chain 1: MEEHMSSINLTVNNIDVEVEAGATLYQAAQKAGVNIPTLCAWFDKDHTPGACRVCVVEVEGMPSLAASCAYPAQNGMKVFTNSDKVRQARKMIVELILASHPQECNFCVRNGNCELQKVAEMVGVKNIRYDSEEFDRDRELDTSSPAIVRDSSKCINCRRCVTVCESIQTVAALSPMNRGYESTVSPAFNLPLNETNCVNCGQCVMACPVGALYEKDQVDEVWKALQDPTRHVVVQEAPAIRAALGEEFGMPPGSLVTGKMIAALRRLGFDKVFDTNFTADLTIIEEGNELLKRVKEGGTLPMITSCSPGWIKFCEHFYPDLLGHLSTCKSPQQMFGALAKTYYAQVSGIDPANIFSVSIMPCTAKKYEAQRPEMKSSGYQDVDVVLTTRELARMIKEAGIDFVNLPDEKYDDPMGEYTGAATIFGATGGVMEAALRTVYAVVTGEELSDLNIMPVRGLEGVKAAAVPVGALGDVKVAVAHGLGNARKLLDEIRAGKSEYAFIEVMCCPGGCVAGGGEPIPTTDEIRMLRAGALYRDDGEVQQYRQSHQSPPVKAVYEKFLKEPLGHKSHELLHTHYVQRGQSLPHLDASPAGEKETVEAMCEKD chain 2: MITVQDIENVIAARGNAREHLMAILRDLENLSGRNVLDVSVLNTLAMKMDLPQSAISGFTSFYTMFSTEPRAKFIIRVCKSGPCHVMGARTIFDVIENHLGIRAGETTADGLFHLEECECLGLCSAAPAMMVNYDMHGNLSESNIKEILDSYSAREPAFKAEYGPGIEGRAVIINNSQQTRRLLENVGKVDPASIESYLQNGGYEAARKAFAEYSPEQVIGIVKDSGLRGRGGAGFPVGVKWSFVPKGEMQKYVICNADEGEPGTFKDRVLMEENPQQLIEGMLLCGYAIGATLGYIYVRGEYRRSIERLQSAIDQARAKGFLGKKIFGSNFDFDIFVKEGGGAYVCGEETSLINSMEGKRGYPRVRPPFPAAAGFMGMPSNVNNVETLSSIPMIVARGADWFKSVGTATCAGTKLYCLSGKVNQTGLVELPMGATLRQMIDTFGGGMKSGSSFKFAQVGGAAGGILGADLMDLPLDIDSTIKAGVTLGSGVVLVCDQETCAVDFLLNVLNFFEHESCGQCIPCKLGTSQLHYVAQKFAMREAEEKDIQLMIDTAKMMKLASLCALGQSPILPIETMIRNFREEFVKHCDPDYECPQCDASLQAYYL", "values": [{"measurement": "stoichiometry N", "value": 2}]}
